Key:
[1] = target: gp120 pre-complexed with sCD4 (HIV-1); experiment: yeast display flow cytometry, gp120 titrated in the presence of sCD4, MFI of antigen binding
[2] = target: monomeric gp120 (HIV-1) (HIV-1); experiment: yeast display flow cytometry, gp120 titrated in the absence of sCD4, MFI of antigen binding

Substance: scFv X5 displayed on yeast (X5-pPNLS in EBY100)
- Kd [1]: 1.1 nM
- Kd [2]: 14.5 nM

Source: patent publication US20100216659A1
